Laboratory results taken from PMC8609903, “Novel Lung Targeting Cell Penetrating Peptides as Vectors for Delivery of Therapeutics” (Research Square, 2021).

How the values were obtained:
[1] = tested on: SARS-CoV-2 (strain USA_WA1/2020); assay type: cell-based; conditions: concentrations of 2, 0.2, and 0.02 μM, human bronchial epithelial cells
[2] = tested on: Rat cardiomyoblast H9C2 cells; conditions: 10μM peptide, 30 minutes, 37°C, N-terminal Cy5.5, C-terminal amide, FACs, biological triplicates, p<0.001
[3] = tested on: human bronchial epithelial cells
[4] = tested on: wild-type CD1 mice; assay: Biodistribution time course of Cy5.5 labeled R11A, ex-vivo IVIS imaging; conditions: 5mg/Kg Cy5.5 labeled R11A intravenous, 15-360 minutes, n=3
Procedure: Mice were euthanized at the end of the circulation period, perfused and fixed as before, and multiple organs harvested and ex-vivo IVIS imaging performed immediately.
Wild-type, 6-week old, female CD1 mice were purchased from Charles Rivers. After at least 48 hours of acclimatization after arriving in the animal colony, mice were weighed and anesthetized with an intraperitoneal injection of a 1:1 cocktail of Ketamine:Xylazine at 1–2μL/gm body weight. […] At the end of circulation time, mice were euthanized using inhalational CO2 as per IACUC-approved protocol, chest cavity opened, right atrium nicked and 3–5ml of 4% formalin injected through the left ventricular apex to perfusion fix the animals. Various organs were harvested, rinsed once in PBS and placed on a petri dish to be imaged using IVIS (Perkin- Elmer – S5 instrument). All mice were imaged using identical instrument settings (stage position, exposure time, binning, F-stop etc.). […] All time-points were tested in at least triplicate (n=3).

Compound | reduction of SARS-CoV-2 titers compared to virus controls [1] | Cy5.5 intensities, fold higher [2] | uptake at 4°C [3] | fluorescence in kidneys [4] | fluorescence in liver [4]
CCC(CC)COC(=O)[C@H](C)N[P@](=O)(OC[C@H]1O[C@@](C#N)(c2ccc3c(N)ncnn23)[C@H](O)[C@@H]1O)Oc1ccccc1 [Remdesivir] | statistically significant | – | – | – | –
APWHLSAQYSRT ({Cy5.5}-APWHLSAQYSRT-NH2) [S7A] | – | ~3 fold | very little uptake | – | –
APWHLSSQYSAT ({Cy5.5}-APWHLSSQYSAT-NH2) [R11A] | – | – | very little uptake | little fluorescence | decreased over time
